In the experiment the target is T1, GST-PIF3 (Arabidopsis thaliana, UniProt O80536 1-524).
T1 construct: coding region with an NdeI site before the first ATG and an XhoI site at its 3' end, NdeI/XhoI fragment cloned into pGEX4T-2; source: E. coli BL21, purified (Glutathione Sepharose 4B)
T1 sequence (looked up): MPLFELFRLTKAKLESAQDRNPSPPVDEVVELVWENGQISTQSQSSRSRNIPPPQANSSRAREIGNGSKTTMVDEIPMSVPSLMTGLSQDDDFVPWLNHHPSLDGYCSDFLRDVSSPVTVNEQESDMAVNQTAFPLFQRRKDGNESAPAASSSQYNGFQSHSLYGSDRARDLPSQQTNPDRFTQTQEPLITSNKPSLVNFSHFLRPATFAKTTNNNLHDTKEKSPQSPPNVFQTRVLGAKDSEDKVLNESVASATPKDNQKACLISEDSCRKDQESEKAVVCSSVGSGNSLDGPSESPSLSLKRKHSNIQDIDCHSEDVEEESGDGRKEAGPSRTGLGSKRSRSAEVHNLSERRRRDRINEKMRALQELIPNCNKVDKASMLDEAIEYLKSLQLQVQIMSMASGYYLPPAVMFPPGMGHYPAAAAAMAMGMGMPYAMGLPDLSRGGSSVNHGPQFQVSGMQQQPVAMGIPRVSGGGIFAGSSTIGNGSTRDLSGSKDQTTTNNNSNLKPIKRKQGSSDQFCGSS
The experiment is described as follows: pull-down; GST or GST-PIF3 bound to Glutathione Sepharose 4B beads, incubated with His-MPK6 in 50 mM Tris-HCl pH 7.5, 100 mM NaCl, 0.02% Triton X-100 at 4 °C for 2 h; immunoblot with anti-GST and anti-His. Particulars: both partners purified. (In western blotting, separated proteins are transferred to a membrane and probed.)

B1: His-MPK6 (enzyme, Arabidopsis thaliana, UniProt Q39026 1-395, looked up)
chain: MDGGSGQPAADTEMTEAPGGFPAAAPSPQMPGIENIPATLSHGGRFIQYNIFGNIFEVTAKYKPPIMPIGKGAYGIVCSAMNSETNESVAIKKIANAFDNKIDAKRTLREIKLLRHMDHENIVAIRDIIPPPLRNAFNDVYIAYELMDTDLHQIIRSNQALSEEHCQYFLYQILRGLKYIHSANVLHRDLKPSNLLLNANCDLKICDFGLARVTSESDFMTEYVVTRWYRAPELLLNSSDYTAAIDVWSVGCIFMELMDRKPLFPGRDHVHQLRLLMELIGTPSEEELEFLNENAKRYIRQLPPYPRQSITDKFPTVHPLAIDLIEKMLTFDPRRRITVLDALAHPYLNSLHDISDEPECTIPFNFDFENHALSEEQMKELIYREALAFNPEYQQ
notes: coding region amplified from seedling cDNA with an NdeI site before the first ATG, NdeI/SalI fragment cloned into pET28a(+); The NdeI site of pET28a(+) would put the His tag at the N-terminus (surmised); source: E. coli BL21, purified (Ni2+-chelating Sepharose Fast Flow)
In the case of B1, the binding result is recorded as “binds”.

Source of the values: publication PMC5853512, “Arabidopsis MKK10-MPK6 mediates red-light-regulated opening of seedling cotyledons through phosphorylation of PIF3” (Journal of Experimental Botany, 2017).
